According to patent publication US20240343803A1 (SHANDONG SIMCERE BIOPHARMACEUTICAL, published 2024):

Assays:
[1] = molecular target: T1, cynomolgus monkey PVRIG (Novoprotein, Cat NO. C09B) (cynomolgus monkey, UniProt A0A2K5WVV8 41-171); experiment: ELISA, coated cynomolgus monkey PVRIG
T1 construct: Bought reagent; also called cynomolgus monkey PVRIG protein
T1 sequence: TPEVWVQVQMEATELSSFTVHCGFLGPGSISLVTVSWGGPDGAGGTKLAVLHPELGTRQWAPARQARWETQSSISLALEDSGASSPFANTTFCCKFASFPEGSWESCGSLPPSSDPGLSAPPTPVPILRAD

[2] = molecular target: T2, human PVRIG-his (AcroBiosystems, Cat NO. PVG-H52H4) (human, UniProt Q6DKI7 41-171, limits assumed); experiment: ELISA, coated human PVRIG-his; binding ELISA, Table 23
T2 construct: Bought reagent; also called human PVRIG protein
T2 sequence (looked up): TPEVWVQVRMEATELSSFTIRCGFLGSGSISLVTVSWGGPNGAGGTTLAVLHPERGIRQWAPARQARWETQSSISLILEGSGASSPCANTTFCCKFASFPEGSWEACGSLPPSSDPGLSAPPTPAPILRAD
Description: The ELISA plate was pre-coated with 100 μL/well of 0.5 μg/mL human PVRIG-his (AcroBiosystems, Cat NO. PVG-H52H4) or cynomolgus monkey PVRIG (Novoprotein, Cat NO. C09B). […] A HRP substrate, TMB (Thermo, Cat NO. 34029) was added into wells after washing the plate again for color development. After adding a termination solution to terminate the reaction, the absorbance value was read by a microplate reader (MD i3×). An antibody binding curve was drawn with concentration of antibodies as the abscissa and the corresponding OD value as the ordinate. The EC50 value was calculated by using a Four Parameter Logistic Fit (GraphPadPrism9). The smaller the EC50 value, the stronger the ability of the antibodies binds to human or cynomolgus monkey PVRIG. The positive control antibodies are COM701-hIgG1 (Patent No.:US20180244774A1), COM701-hIgG4 (patent No.: US20180244774A1) and SRF813-hIgG1 (Patent No.:US20200040081A1); and the negative control antibodies are anti-HA HcAb-hIgG1 (Chengdu NB Biolab, Cat NO. NBR022), anti-CD38 HcAb-hIgG1 (in-house) and anti-Fluorescein-hIgG1 (in house).

[3] = molecular target: T3, human PVRIG on FlpinCHO-PVRIG cells (human, UniProt Q6DKI7 41-326); experiment: FACS, FlpinCHO-PVRIG cells; AUC of MFI curve relative to COM701-hIgG1
T3 construct: whole, on cells
T3 sequence (looked up): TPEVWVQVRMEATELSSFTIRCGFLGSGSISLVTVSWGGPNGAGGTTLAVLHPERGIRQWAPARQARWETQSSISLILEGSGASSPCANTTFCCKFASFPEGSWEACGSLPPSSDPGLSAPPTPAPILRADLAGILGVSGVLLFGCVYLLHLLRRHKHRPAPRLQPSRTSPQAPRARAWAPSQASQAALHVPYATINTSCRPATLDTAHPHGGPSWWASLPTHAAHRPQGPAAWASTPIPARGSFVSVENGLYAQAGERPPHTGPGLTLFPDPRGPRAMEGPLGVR
Description: (§1) The Ham's F12 (Gibico, 21127-022) complete medium containing 10% FBS was then added to terminate the digestion and acquire cell suspension. After counting with a cell counter (Beckman Coulter, Vi-CELL), an appropriate amount of cell suspension was centrifuged at 350×g to remove the supernatant, washed twice with PBS, stained with Zombie violet (Biolegend, 423114) and incubated at room temperature for 20 minutes. After incubation, the cells were added with staining buffer (2% FBS+PBS) to stop staining, centrifuged at 350×g to remove the supernatant, washed twice and resuspended with staining buffer to a density of 2×10⁶ cells/mL. The cells were plated into a 96-well plate (50 μL of cell suspension per well) for further use. The antibodies were diluted from the highest concentration of 46 nM (two-fold concentration) with staining buffer by 3.3-fold serial dilution. The diluted antibodies were added to the well containing 50 μL of cell suspension. The plate was placed on a microplate shaker at 400 rpm for 1 minute to fully mix the antibodies and cells, and then incubated at 4° C. for 30 minutes. After the incubation, the cells were washed twice with staining buffer (200 μL per well) and centrifuged at 350×g for 5 minutes to discard the supernatant. The PE goat anti-human IgG Fc antibody (ebioscience, 12-4998-82) was diluted 250 times with staining buffer, added into the washed wells (100 μL per well), mixed well, and stained at 4° C. for 30 minutes. After staining, the cells were washed twice with staining buffer, finally resuspended with 200 μL staining buffer and analyzed by flow cytometry (BD, Canto II). The stronger the signal, the stronger the ability of the antibodies binds to PVRIG. An antibody binding curve was drawn with concentration of antibodies as the abscissa and the corresponding Mean Fluorescence Intensity (MFI) as the ordinate. The AUC value of the curve was calculated by using a Four Parameter Logistic Fit (GraphPadPrism9). The stronger the AUC value, the stronger the ability of the antibodies binds to FlpinCHO-PVRIG and FlpinCHO-cyno PVRIG. […] The binding activity of the antibodies was normalized to the positive control COM701-hIgG1 and SRF813-hIgG1.

[4] = molecular target: T3, human PVRIG on FlpinCHO-PVRIG cells; experiment: FACS, FlpinCHO-PVRIG cells; AUC of MFI curve relative to SRF813-hIgG1
Description: as §1

[5] = molecular target: T4, cynomolgus monkey PVRIG on FlpinCHO-cyno PVRIG cells (cynomolgus monkey, UniProt A0A2K5WVV8 41-322); experiment: FACS, FlpinCHO-cyno PVRIG cells; AUC of MFI curve relative to COM701-hIgG1
T4 construct: whole, on cells
T4 sequence: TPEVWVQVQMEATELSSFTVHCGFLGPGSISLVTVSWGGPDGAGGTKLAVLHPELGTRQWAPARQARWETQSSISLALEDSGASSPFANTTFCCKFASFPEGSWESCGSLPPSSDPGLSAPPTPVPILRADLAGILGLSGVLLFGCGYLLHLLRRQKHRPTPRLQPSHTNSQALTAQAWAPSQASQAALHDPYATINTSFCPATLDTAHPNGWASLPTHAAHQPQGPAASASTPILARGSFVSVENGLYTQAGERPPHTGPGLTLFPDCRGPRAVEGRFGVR
Description: as §1

[6] = molecular target: T4, cynomolgus monkey PVRIG on …; experiment: FACS, FlpinCHO-cyno PVRIG cells; AUC of MFI curve relative to SRF813-hIgG1
Description: as §1

EC50 [1]: 0.0289 nM | EC50 [2]: 0.121 nM | % AUC to COM701-hIgG1 [3]: 117% | % AUC to SRF813-hIgG1 [4]: 143% | % AUC to COM701-hIgG1 [5]: 41.3% | % AUC to SRF813-hIgG1 [6]: 48.6%
B1: PVRIG-A11 (Fc fusion)
chain: QLQLVESGGGLVQPGGSLRLSCAASGFTDDYYAIGWFRQAPGKEREGVSCISGSGGSTNYEDSVKGRFAISRDNAKNMVYLQMNDLKPEDTAVYYCAADPFWSAPCTGHNDRYFDVWGQGTLVTVSS
notes: Alpaca VHH joined to human IgG1 Fc (VHH-hinge-CH2-CH3); not shown: human IgG1 hinge-CH2-CH3
